# According to paper PMC12015307 (Nature Communications, 2025):
# B1: 15-bp dsDNA (dsDNA)
# DNA 1: GATAAGGACTCGTAT
# DNA 2: ATACGAGTCCTTATC
# B2: His-SAMD9, recombinant full-length human SAMD9 (natural protein)
# chain: MAKQLNLPENTDDWTKEDVNQWLESHKIDQKHREILTEQDVNGAVLKWLKKEHLVDMGITHGPAIQIEELFKELRKTAIEDSIQTSKMGKPSKNAPKDQTVSQKERRETSKQKQKGKENPDMANPSAMSTTAKGSKSLKVELIEDKIDYTKERQPSIDLTCVSYPFDEFSNPYRYKLDFSLQPETGPGNLIDPIHEFKAFTNTATATEEDVKMKFSNEVFRFASACMNSRTNGTIHFGVKDKPHGKIVGIKVTNDTKEALINHFNLMINKYFEDHQVQQAKKCIREPRFVEVLLPNSTLSDRFVIEVDIIPQFSECQYDYFQIKMQNYNNKIWEQSKKFSLFVRDGTSSKDITKNKVDFRAFKADFKTLAESRKAAEEKFRAKTNKKEREGPKLVKLLTGNQDLLDNSYYEQYILVTNKCHPDQTKHLDFLKEIKWFAVLEFDPESNINGVVKAYKESRVANLHFPSVYVEQKTTPNETISTLNLYHQPSWIFCNGRLDLDSEKYKPFDPSSWQRERASDVRKLISFLTHEDIMPRGKFLVVFLLLSSVDDPRDPLIETFCAFYQDLKGMENILCICVHPHIFQGWKDLLEARLIKHQDEISSQCISALSLEEINGTILKLKSVTQSSKRLLPSIGLSTVLLKKEEDIMTALEIICENECEGTLLEKDKNKFLEFKASKEEDFYRGGKVSWWNFYFSSESYSSPFVKRDKYERLEAMIQNCADSSKPTSTKIIHLYHHPGCGGTTLAMHILWELRKKFRCAVLKNKTVDFSEIGEQVTSLITYGAMNRQEYVPVLLLVDDFEEQDNVYLLQYSIQTAIAKKYIRYEKPLVIILNCMRSQNPEKSARIPDSIAVIQQLSPKEQRAFELKLKEIKEQHKNFEDFYSFMIMKTNFNKEYIENVVRNILKGQNIFTKEAKLFSFLALLNSYVPDTTISLSQCEKFLGIGNKKAFWGTEKFEDKMGTYSTILIKTEVIECGNYCGVRIIHSLIAEFSLEELKKSYHLNKSQIMLDMLTENLFFDTGMGKSKFLQDMHTLLLTRHRDEHEGETGNWFSPFIEALHKDEGNEAVEAVLLESIHRFNPNAFICQALARHFYIKKKDFGNALNWAKQAKIIEPDNSYISDTLGQVYKSKIRWWIEENGGNGNISVDDLIALLDLAEHASSAFKESQQQSEDREYEVKERLYPKSKRRYDTYNIAGYQGEIEVGLYTIQILQLIPFFDNKNELSKRYMVNFVSGSSDIPGDPNNEYKLALKNYIPYLTKLKFSLKKSFDFFDEYFVLLKPRNNIKQNEEAKTRRKVAGYFKKYVDIFCLLEESQNNTGLGSKFSEPLQVERCRRNLVALKADKFSGLLEYLIKSQEDAISTMKCIVNEYTFLLEQCTVKIQSKEKLNFILANIILSCIQPTSRLVKPVEKLKDQLREVLQPIGLTYQFSEPYFLASLLFWPENQQLDQHSEQMKEYAQALKNSFKGQYKHMHRTKQPIAYFFLGKGKRLERLVHKGKIDQCFKKTPDINSLWQSGDVWKEEKVQELLLRLQGRAENNCLYIEYGINEKITIPITPAFLGQLRSGRSIEKVSFYLGFSIGGPLAYDIEIV
# B3: 80-nt ssDNA (ssDNA)
# DNA: CGCCTACATACCTCGCTCTGCTAATCCTGTTACCAGTGGCTGCTGCCAGTGGCGATAAGTCGTGTCTTACCGGGTTGGAC
# B4: 20-bp dsDNA (dsDNA)
# DNA 1: GATAAGGACTCGTATGTACC
# DNA 2: GGTACATACGAGTCCTTATC
# Legend:
# His-SAMD9 = His-SAMD9 (Homo sapiens, UniProt Q5K651 1-1589); assay: EMSA
# native gel or EMSA = biological target: the molecule itself; assay: native gel or EMSA
Binder,binding result (His-SAMD9),binding result (native gel or EMSA)
B1,no binding,
B2,,binds
B3,no binding,
B4,no binding,
